Measured values published in patent US20260098092A1 (CHULALONGKORN UNIVERSITY, published 2026).

B1: Modified Seq11 (modified zCUSB0136.8 antibody) (antibody, V domains shown)
VH: QVQLQESGPGLVKPSETLSLTCTVSGFSLTTYDIIWIRQSPGKGLEWLGVIWTGGDTTYNSAFMSRLTISKDTSKNQISLKMSSLTAADTAVYYCARDWAYWGQGTLVTVSS
VL: DIVLTQSPDSLAVSLGERATISCRASESVDNYGNSFIQWYQQKPGQPPKLLIYFASYLQSGVPDRFSGSGSGTDFTLTISSVQAEDVATYYCHQNNEDPFTFGGGTKLEIK
B2: Modified Seq21 (modified zCUSB0136.8 antibody) (antibody, V domains shown)
VH: QVQLQESGPGLVKPSETLSLTCTVSGFSLTTYDIIWIRQSPGKGLEWLGVIWTGGDTTYNSAFMSRLTISKDTSKNQISLKMSSLTAADTAVYYCARDWAYWGQGTLVTVSS
VL: DIVLTQSPDSLAVSLGERATISCRASESVDNWGNSFIQWYQQKPGQPPKLLIYFASNLQSGVPDRFSGSGSGTDFTLTISSVQAEDVATYYCHQNNEDPFTFGGGTKLEIK
B3: Modified Seq18 (modified zCUSB0136.8 antibody) (antibody, V domains shown)
VH: QVQLQESGPGLVKPSETLSLTCTVSGFSLTTYDIIWIRQSPGKGLEWLGVIWTGGDTTYNSAFMSRLTISKDTSKNQISLKMSSLTAADTAVYYCARDWAYWGQGTLVTVSS
VL: DIVLTQSPDSLAVSLGERATISCRASESVDNWGNSFIQWYQQKPGQPPKLLIYFASQLQSGVPDRFSGSGSGTDFTLTISSVQAEDVATYYCHQNNEDPFTFGGGTKLEIK
B4: Modified Seq8 (modified zCUSB0136.8 antibody) (antibody, V domains shown)
VH: QVQLQESGPGLVKPSETLSLTCTVSGFSLTTYDIIWIRQSPGKGLEWLGVIWTGGDTWYNSAFMSRLTISKDTSKNQISLKMSSLTAADTAVYYCARDWIYWGQGTLVTVSS
VL: DIVLTQSPDSLAVSLGERATISCRASESVDNYGNSFIQWYQQKPGQPPKLLIYFASYLQSGVPDRFSGSGSGTDFTLTISSVQAEDVATYYCHQNNEDPFTFGGGTKLEIK
B5: Modified Seq4 (modified zCUSB0136.8 antibody) (antibody, V domains shown)
VH: QVQLQESGPGLVKPSETLSLTCTVSGFSLTVYDIIWIRQSPGKGLEWLGVIWTGGDTTYNSAFMSRLTISKDTSKNQISLKMSSLTAADTAVYYCARDWAYWGQGTLVTVSS
VL: DIVLTQSPDSLAVSLGERATISCRASESVDNYGNSFIQWYQQKPGQPPKLLIYFASYLQSGVPDRFSGSGSGTDFTLTISSVQAEDVATYYCHQNNEDPFTFGGGTKLEIK
B6: Modified Seq20 (modified zCUSB0136.8 antibody) (antibody, V domains shown)
VH: QVQLQESGPGLVKPSETLSLTCTVSGFSLTVYDIIWIRQSPGKGLEWLGVIWTGGDTTYNSAFMSRLTISKDTSKNQISLKMSSLTAADTAVYYCARDWIYWGQGTLVTVSS
VL: DIVLTQSPDSLAVSLGERATISCRASESVDNYGNSFIQWYQQKPGQPPKLLIYFASHLQSGVPDRFSGSGSGTDFTLTISSVQAEDVATYYCHQNNEDPFTFGGGTKLEIK
B7: Modified Seq15 (modified zCUSB0136.8 antibody) (antibody, V domains shown)
VH: QVQLQESGPGLVKPSETLSLTCTVSGFSLTVYDIIWIRQSPGKGLEWLGVIWTGGDTTYNSAFMSRLTISKDTSKNQISLKMSSLTAADTAVYYCARDWAYWGQGTLVTVSS
VL: DIVLTQSPDSLAVSLGERATISCRASESVDNWGNSFIQWYQQKPGQPPKLLIYFASNLQSGVPDRFSGSGSGTDFTLTISSVQAEDVATYYCHQNNEDPFTFGGGTKLEIK
B8: Modified Seq6 (modified zCUSB0136.8 antibody) (antibody, V domains shown)
VH: QVQLQESGPGLVKPSETLSLTCTVSGFSLTTYDIIWIRQSPGKGLEWLGVIWTGGDTTYNSAFMSRLTISKDTSKNQISLKMSSLTAADTAVYYCARDWIYWGQGTLVTVSS
VL: DIVLTQSPDSLAVSLGERATISCRASESVDNYGNSFIQWYQQKPGQPPKLLIYFASYLQSGVPDRFSGSGSGTDFTLTISSVQAEDVATYYCHQNNEDPFTFGGGTKLEIK
B9: Modified Seq17 (modified zCUSB0136.8 antibody) (antibody, V domains shown)
VH: QVQLQESGPGLVKPSETLSLTCTVSGFSLTVYDIIWIRQSPGKGLEWLGVIWTGGDTTYNSAFMSRLTISKDTSKNQISLKMSSLTAADTAVYYCARDWAYWGQGTLVTVSS
VL: DIVLTQSPDSLAVSLGERATISCRASESVDNYGNSFIQWYQQKPGQPPKLLIYFASYLQSGVPDRFSGSGSGTDFTLTISSVQAEDVATYYCHQNNEDPFTFGGGTKLEIK
B10: Modified Seq7 (modified zCUSB0136.8 antibody) (antibody, V domains shown)
VH: QVQLQESGPGLVKPSETLSLTCTVSGFSLTTYDIIWIRQSPGKGLEWLGVIWTGGDTTYNSAFMSRLTISKDTSKNQISLKMSSLTAADTAVYYCARDWMYWGQGTLVTVSS
VL: DIVLTQSPDSLAVSLGERATISCRASESVDNYGNSFIQWYQQKPGQPPKLLIYFASYLQSGVPDRFSGSGSGTDFTLTISSVQAEDVATYYCHQNNEDPFTFGGGTKLEIK
B11: Modified Seq1 (modified zCUSB0136.8 antibody) (antibody, V domains shown)
VH: QVQLQESGPGLVKPSETLSLTCTVSGFSLTTYDIIWIRQSPGKGLEWLGVIWTGGDTWYNSAFMSRLTISKDTSKNQISLKMSSLTAADTAVYYCARDWAYWGQGTLVTVSS
VL: DIVLTQSPDSLAVSLGERATISCRASESVDNWGNSFIQWYQQKPGQPPKLLIYFASYLQSGVPDRFSGSGSGTDFTLTISSVQAEDVATYYCHQNNEDPFTFGGGTKLEIK
B12: Modified Seq5 (modified zCUSB0136.8 antibody) (antibody, V domains shown)
VH: QVQLQESGPGLVKPSETLSLTCTVSGFSLTVYDIIWIRQSPGKGLEWLGVIWTGGDTTYNSAFMSRLTISKDTSKNQISLKMSSLTAADTAVYYCARDWMYWGQGTLVTVSS
VL: DIVLTQSPDSLAVSLGERATISCRASESVDNYGNSFIQWYQQKPGQPPKLLIYFASYLQSGVPDRFSGSGSGTDFTLTISSVQAEDVATYYCHQNNEDPFTFGGGTKLEIK
B13: Modified Seq14 (modified zCUSB0136.8 antibody) (antibody, V domains shown)
VH: QVQLQESGPGLVKPSETLSLTCTVSGFSLTTYDIIWIRQSPGKGLEWLGVIWTGGDTTYNSAFMSRLTISKDTSKNQISLKMSSLTAADTAVYYCARDWIYWGQGTLVTVSS
VL: DIVLTQSPDSLAVSLGERATISCRASESVDNWGNSFIQWYQQKPGQPPKLLIYFASNLQSGVPDRFSGSGSGTDFTLTISSVQAEDVATYYCHQNNEDPFTFGGGTKLEIK
B14: Modified Seq2 (modified zCUSB0136.8 antibody) (antibody, V domains shown)
VH: QVQLQESGPGLVKPSETLSLTCTVSGFSLTVYDIIWIRQSPGKGLEWLGVIWTGGDTTYNSAFMSRLTISKDTSKNQISLKMSSLTAADTAVYYCARDWIYWGQGTLVTVSS
VL: DIVLTQSPDSLAVSLGERATISCRASESVDNYGNSFIQWYQQKPGQPPKLLIYFASYLQSGVPDRFSGSGSGTDFTLTISSVQAEDVATYYCHQNNEDPFTFGGGTKLEIK
B15: Modified Seq22 (modified zCUSB0136.8 antibody) (antibody, V domains shown)
VH: QVQLQESGPGLVKPSETLSLTCTVSGFSLTTYDIIWIRQSPGKGLEWLGVIWTGGDTTYNSAFMSRLTISKDTSKNQISLKMSSLTAADTAVYYCARDWAYWGQGTLVTVSS
VL: DIVLTQSPDSLAVSLGERATISCRASESVDNWGNSFIQWYQQKPGQPPKLLIYFASNLQSGVPDRFSGSGSGTDFTLTISSVQAEDVATYYCHQNNEDPFTFGGGTKLEIK
B16: Modified Seq12 (modified zCUSB0136.8 antibody) (antibody, V domains shown)
VH: QVQLQESGPGLVKPSETLSLTCTVSGFSLTVYDIIWIRQSPGKGLEWLGVIWTGGDTTYNSAFMSRLTISKDTSKNQISLKMSSLTAADTAVYYCARDWIYWGQGTLVTVSS
VL: DIVLTQSPDSLAVSLGERATISCRASESVDNWGNSFIQWYQQKPGQPPKLLIYFASHLQSGVPDRFSGSGSGTDFTLTISSVQAEDVATYYCHQNNEDPFTFGGGTKLEIK
B17: Modified Seq10 (modified zCUSB0136.8 antibody) (antibody, V domains shown)
VH: QVQLQESGPGLVKPSETLSLTCTVSGFSLTTYDIIWIRQSPGKGLEWLGVIWTGGDTWYNSAFMSRLTISKDTSKNQISLKMSSLTAADTAVYYCARDWMYWGQGTLVTVSS
VL: DIVLTQSPDSLAVSLGERATISCRASESVDNWGNSFIQWYQQKPGQPPKLLIYFASHLQSGVPDRFSGSGSGTDFTLTISSVQAEDVATYYCHQNNEDPFTFGGGTKLEIK
B18: Modified Seq19 (modified zCUSB0136.8 antibody) (antibody, V domains shown)
VH: QVQLQESGPGLVKPSETLSLTCTVSGFSLTTYDIIWIRQSPGKGLEWLGVIWTGGDTTYNSAFMSRLTISKDTSKNQISLKMSSLTAADTAVYYCARDWAYWGQGTLVTVSS
VL: DIVLTQSPDSLAVSLGERATISCRASESVDNWGNSFIQWYQQKPGQPPKLLIYFASNLQSGVPDRFSGSGSGTDFTLTISSVQAEDVATYYCHQNNEDPFTFGGGTKLEIK
B19: Modified Seq3 (modified zCUSB0136.8 antibody) (antibody, V domains shown)
VH: QVQLQESGPGLVKPSETLSLTCTVSGFSLTTYDIIWIRQSPGKGLEWLGVIWTGGDTTYNSAFMSRLTISKDTSKNQISLKMSSLTAADTAVYYCARDWIYWGQGTLVTVSS
VL: DIVLTQSPDSLAVSLGERATISCRASESVDNWGNSFIQWYQQKPGQPPKLLIYFASYLQSGVPDRFSGSGSGTDFTLTISSVQAEDVATYYCHQNNEDPFTFGGGTKLEIK
B20: Modified Seq9 (modified zCUSB0136.8 antibody) (antibody, V domains shown)
VH: QVQLQESGPGLVKPSETLSLTCTVSGFSLTTYDIIWIRQSPGKGLEWLGVIWTGGDTNYNSAFMSRLTISKDTSKNQISLKMSSLTAADTAVYYCARDWAYWGQGTLVTVSS
VL: DIVLTQSPDSLAVSLGERATISCRASESVDNYGNSFIQWYQQKPGQPPKLLIYFASYLQSGVPDRFSGSGSGTDFTLTISSVQAEDVATYYCHQNNEDPFTFGGGTKLEIK

What follows are binders tested against T1, recombinant human PD-1 His-tag protein (R&D Systems) (human, UniProt Q15116 25-167) (assay: binding kinetics (method not described at the table; presumably SPR as in Example 8)).
T1 construct: Bought reagent; Used for the ELISA (coated) and for SPR (analyte); also called PD-1 protein; human PD-1 protein; not shown: His-tag
T1 sequence (Q15116 25-167 limits assumed): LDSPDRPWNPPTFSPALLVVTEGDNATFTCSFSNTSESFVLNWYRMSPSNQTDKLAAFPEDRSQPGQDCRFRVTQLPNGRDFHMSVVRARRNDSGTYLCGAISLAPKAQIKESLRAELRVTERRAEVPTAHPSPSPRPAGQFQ

Row | Binder | Kd | koff | kon
1 | B1 | 0.0206 nM | 7.57e-05 s⁻¹ | 3.67e+06 M⁻¹ s⁻¹
2 | B2 | 0.0412 nM | 0.000104 s⁻¹ | 2.52e+06 M⁻¹ s⁻¹
3 | B3 | 0.0307 nM | 7.82e-05 s⁻¹ | 2.54e+06 M⁻¹ s⁻¹
4 | B4 | 0.0147 nM | 6.09e-05 s⁻¹ | 4.13e+06 M⁻¹ s⁻¹
5 | B5 | 0.00944 nM | 3.92e-05 s⁻¹ | 4.15e+06 M⁻¹ s⁻¹
6 | B6 | 0.0319 nM | 8.7e-05 s⁻¹ | 2.73e+06 M⁻¹ s⁻¹
7 | B7 | 0.0246 nM | 6.3e-05 s⁻¹ | 2.56e+06 M⁻¹ s⁻¹
8 | B8 | 0.0136 nM | 5.45e-05 s⁻¹ | 4e+06 M⁻¹ s⁻¹
9 | B9 | 0.0289 nM | 7.39e-05 s⁻¹ | 2.56e+06 M⁻¹ s⁻¹
10 | B10 | 0.0142 nM | 5.48e-05 s⁻¹ | 3.84e+06 M⁻¹ s⁻¹
11 | B11 | 0.00539 nM | 2.81e-05 s⁻¹ | 5.21e+06 M⁻¹ s⁻¹
12 | B12 | 0.0108 nM | 4.36e-05 s⁻¹ | 4.06e+06 M⁻¹ s⁻¹
13 | B13 | 0.0244 nM | 6.5e-05 s⁻¹ | 2.67e+06 M⁻¹ s⁻¹
14 | B14 | 0.00571 nM | 2.53e-05 s⁻¹ | 4.44e+06 M⁻¹ s⁻¹
15 | B15 | 0.057 nM | 0.000134 s⁻¹ | 2.36e+06 M⁻¹ s⁻¹
16 | B16 | 0.0225 nM | 6.81e-05 s⁻¹ | 3.03e+06 M⁻¹ s⁻¹
17 | B17 | 0.0174 nM | 6.74e-05 s⁻¹ | 3.87e+06 M⁻¹ s⁻¹
18 | B18 | 0.0315 nM | 7.97e-05 s⁻¹ | 2.53e+06 M⁻¹ s⁻¹
19 | B19 | 0.00931 nM | 5.28e-05 s⁻¹ | 5.67e+06 M⁻¹ s⁻¹
20 | B20 | 0.0158 nM | 5.98e-05 s⁻¹ | 3.78e+06 M⁻¹ s⁻¹
